In patent EP4471049A1 (Zealand Pharma A/S, priority 2023, dated 2024):
Read-outs that look alike come from different tables or passages of the source. *1 amine or outer side, *2 acyl side, *3 side chain or, on linkers, in order; H or OH if unused. Bridges are numbered along the chain shown (N, C = ends). [ ]: non-standard residue; d: D form. The star is where a group is joined. 4‑Aminomethyl‑phenylacetyl = 4-aminomethyl-phenylacetyl unit, its amine closes the lactam, O=C(Cc1ccc(CN[*:1])cc1)[*:2]; NH(4-(3-pyridyl)butyl) = c1cncc(CCCCN*)c1; NH(2-(3-pyridyl)ethyl) = c1cncc(CCN*)c1; 2Nal = N[C@@H](Cc1ccc2ccccc2c1)C(=O)O; AEF = NCCOc1ccc(C[C@H](N)C(=O)O)cc1; 3Pal = N[C@@H](Cc1cccnc1)C(=O)O; αMeL = CC(C)C[C@](C)(N)C(=O)O; Dab = NCC[C@H](N)C(=O)O

T1: Nluc-IL23R fusion protein (human, UniProt Q5VWK5 22-629)
T1 construct: range 22-629; expressed with a secretion signal in HEK293 cells; used as crude membrane preparation; also called hIL-23R; human IL-23R; not shown: Nanoluc protein from the expression plasmid N1371 (Promega), N-terminal of IL-23R
T1 sequence (looked up): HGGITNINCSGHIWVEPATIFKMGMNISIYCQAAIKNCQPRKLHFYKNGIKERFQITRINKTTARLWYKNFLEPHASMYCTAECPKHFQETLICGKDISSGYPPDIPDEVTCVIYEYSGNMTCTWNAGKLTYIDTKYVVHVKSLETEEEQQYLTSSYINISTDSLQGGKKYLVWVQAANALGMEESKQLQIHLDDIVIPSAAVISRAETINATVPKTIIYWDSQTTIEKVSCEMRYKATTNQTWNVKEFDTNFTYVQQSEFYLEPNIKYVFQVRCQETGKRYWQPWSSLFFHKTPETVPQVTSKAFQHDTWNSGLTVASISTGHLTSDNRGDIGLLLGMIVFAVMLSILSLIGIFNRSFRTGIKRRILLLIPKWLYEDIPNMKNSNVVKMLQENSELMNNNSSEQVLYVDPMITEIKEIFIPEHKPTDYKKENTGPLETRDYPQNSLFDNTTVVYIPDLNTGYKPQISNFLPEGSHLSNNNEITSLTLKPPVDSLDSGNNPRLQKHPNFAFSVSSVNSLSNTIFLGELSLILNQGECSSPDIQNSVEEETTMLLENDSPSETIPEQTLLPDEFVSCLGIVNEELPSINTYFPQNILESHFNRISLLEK

T2: human IL-23R endogenously expressed on DB cells (human, UniProt Q5VWK5 24-629)
T2 sequence (looked up): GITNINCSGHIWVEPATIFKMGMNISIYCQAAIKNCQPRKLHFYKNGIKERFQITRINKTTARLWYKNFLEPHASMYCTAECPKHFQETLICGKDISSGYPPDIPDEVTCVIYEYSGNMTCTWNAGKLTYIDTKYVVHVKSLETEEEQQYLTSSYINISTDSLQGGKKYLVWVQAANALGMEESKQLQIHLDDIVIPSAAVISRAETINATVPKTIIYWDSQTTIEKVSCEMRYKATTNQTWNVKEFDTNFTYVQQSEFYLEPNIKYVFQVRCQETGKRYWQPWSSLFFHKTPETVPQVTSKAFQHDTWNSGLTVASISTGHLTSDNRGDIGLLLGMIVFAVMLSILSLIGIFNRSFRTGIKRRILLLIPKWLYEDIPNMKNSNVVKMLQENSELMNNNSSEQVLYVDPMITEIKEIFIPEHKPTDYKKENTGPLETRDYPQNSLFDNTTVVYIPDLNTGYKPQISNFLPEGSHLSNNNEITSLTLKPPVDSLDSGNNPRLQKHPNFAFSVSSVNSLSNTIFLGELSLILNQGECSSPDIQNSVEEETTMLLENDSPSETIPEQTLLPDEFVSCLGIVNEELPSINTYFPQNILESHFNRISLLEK


Experiments:
[1] = biological target: T1, Nluc-IL23R fusion protein; test: BRET competition vs TAMRA-labelled peptide, Nluc-IL23R membranes
[2] = biological target: T2, human IL-23R endogenously expressed on …; test: cell-based or functional assay
[3] = biological target: T2, human IL-23R endogenously expressed on …; test: cell-based or functional assay; remark: listed apart in the source
[4] = biological target: T2, human IL-23R endogenously expressed on …; test: cell-based or functional assay; remark: listed apart in the source
[5] = biological target: T1, Nluc-IL23R fusion protein; test: BRET competition vs TAMRA-labelled peptide, Nluc-IL23R membranes; remark: listed apart in the source
[6] = biological target: T2, human IL-23R endogenously expressed on …; test: cell-based or functional assay; remark: listed apart in the source
[7] = biological target: T2, human IL-23R endogenously expressed on …; test: cell-based or functional assay; remark: listed apart in the source

Binder | % displacement (hIL-23R binding) [1] [%] | hIL-23 (pSTAT3) antagonist % inhibition [2] [%] | hIL-23 (pSTAT3) antagonist IC50 [2] | IC50 (pSTAT3) [3] | IC50 (pSTAT3) [4] | IC50 [1] [nM] | % displacement (hIL-23R binding) [5] [%] | IC50 (pSTAT3) [6] [pM] | IC50 (pSTAT3) [7] [pM]
[4‑Aminomethyl‑phenylacetyl]SEWQ[Dab][AEF][2Nal][αMeL]E[Dab]-{NH(2-(3-pyridyl)ethyl)} (lactam N-10, 3-6; SMILES CC(C)C[C@]1(C)NC(=O)[C@H](Cc2ccc3ccccc3c2)NC(=O)[C@H](Cc2ccc(OCCN)cc2)NC(=O)[C@@H]2CCNC(=O)CC[C@H](NC(=O)[C@H](CO)NC(=O)Cc3ccc(cc3)CNC(=O)CC[C@@H](C(=O)N[C@@H](CCN)C(=O)NCCc3cccnc3)NC1=O)C(=O)N[C@@H](Cc1c[nH]c3ccccc13)C(=O)N[C@@H](CCC(N)=O)C(=O)N2) [Compound 7] | 102 | 98 | 0.13 nM | 0.13 nM |  |  |  |  | 
[4‑Aminomethyl‑phenylacetyl]SEWQ[Dab][AEF][2Nal][αMeL]E[Dab][dH]-NH2 (lactam N-10, 3-6; SMILES CC(C)C[C@]1(C)NC(=O)[C@H](Cc2ccc3ccccc3c2)NC(=O)[C@H](Cc2ccc(OCCN)cc2)NC(=O)[C@@H]2CCNC(=O)CC[C@H](NC(=O)[C@H](CO)NC(=O)Cc3ccc(cc3)CNC(=O)CC[C@@H](C(=O)N[C@@H](CCN)C(=O)N[C@H](Cc3c[nH]cn3)C(N)=O)NC1=O)C(=O)N[C@@H](Cc1c[nH]c3ccccc13)C(=O)N[C@@H](CCC(N)=O)C(=O)N2) [Compound 13] | 100 | 99 | 6.8 nM |  | 6.8 nM |  |  |  | 
[4‑Aminomethyl‑phenylacetyl]SEWQ[Dab][AEF][2Nal][αMeL]E[Dab]-{NH(4-(3-pyridyl)butyl)} (lactam N-10, 3-6) [Compound 6] | 103 | 99 | 3.2 nM | 3.2 nM |  | 0.037 |  |  | 
[4‑Aminomethyl‑phenylacetyl]SEWQ[Dab][AEF][2Nal][αMeL]E[Dab][3Pal]-NH2 (lactam N-10, 3-6; SMILES CC(C)C[C@]1(C)NC(=O)[C@H](Cc2ccc3ccccc3c2)NC(=O)[C@H](Cc2ccc(OCCN)cc2)NC(=O)[C@@H]2CCNC(=O)CC[C@H](NC(=O)[C@H](CO)NC(=O)Cc3ccc(cc3)CNC(=O)CC[C@@H](C(=O)N[C@@H](CCN)C(=O)N[C@@H](Cc3cccnc3)C(N)=O)NC1=O)C(=O)N[C@@H](Cc1c[nH]c3ccccc13)C(=O)N[C@@H](CCC(N)=O)C(=O)N2) [Ref 122] |  | 99 | 28 pM | 28 pM | 28 pM |  | 97 | 28 | 28
